Here are results for 2 variants from IntAct's records for PubMed 15504911.

To fix the notation:
B1: ADP-ribosylation factor 1 (Saccharomyces cerevisiae), P11076 (parent)
chain: MGLFASKLFSNLFGNKEMRILMVGLDGAGKTTVLYKLKLGEVITTIPTIGFNVETVQYKNISFTVWDVGGQDRIRSLWRHYYRNTEGVIFVVDSNDRSRIGEAREVMQRMLNEDELRNAAWLVFANKQDLPEAMSAAEITEKLGLHSIRNRPWFIQATCATSGEGLYEGLEWLSNSLKNST
partner: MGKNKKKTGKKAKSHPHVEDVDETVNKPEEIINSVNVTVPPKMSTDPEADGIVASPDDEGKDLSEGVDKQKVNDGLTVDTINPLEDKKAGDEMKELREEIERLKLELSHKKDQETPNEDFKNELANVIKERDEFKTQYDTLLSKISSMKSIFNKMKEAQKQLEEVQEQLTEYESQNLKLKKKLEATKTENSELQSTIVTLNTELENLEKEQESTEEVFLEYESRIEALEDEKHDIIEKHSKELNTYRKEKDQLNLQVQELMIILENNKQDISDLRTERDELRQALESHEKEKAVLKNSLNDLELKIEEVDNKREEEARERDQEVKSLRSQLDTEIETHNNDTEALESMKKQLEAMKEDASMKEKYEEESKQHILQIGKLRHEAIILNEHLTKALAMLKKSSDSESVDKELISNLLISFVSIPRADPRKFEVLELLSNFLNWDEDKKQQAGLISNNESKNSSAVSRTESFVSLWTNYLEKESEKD
B2: GRIP domain-containing protein RUD3 (Saccharomyces cerevisiae), Q12234 (parent)
chain: B1 partner
partner: B1 chain

In one assay the parent is B1. The following applies: with rud3_yeast RUD3, Q12234.
In the case of MGLFASKLFSNLFGNKEMRILMVGLDGAGKTNVLYKLKLGEVITTIPTIGFNVETVQYKNISFTVWDVGGQDRIRSLWRHYYRNTEGVIFVVDSNDRSRIGEAREVMQRMLNEDELRNAAWLVFANKQDLPEAMSAAEITEKLGLHSIRNRPWFIQATCATSGEGLYEGLEWLSNSLKNST [T32N], the “effect of a mutation on the interaction” value is reported as “decreasing interaction”.

The variants in another assay derive from B2. The settings on record: with arf1_yeast ARF1, P11076.
For the variant MGKNKKKTGKKAKSHPHVEDVDETVNKPEEIINSVNVTVPPKMSTDPEADGIVASPDDEGKDLSEGVDKQKVNDGLTVDTINPLEDKKAGDEMKELREEIERLKLELSHKKDQETPNEDFKNELANVIKERDEFKTQYDTLLSKISSMKSIFNKMKEAQKQLEEVQEQLTEYESQNLKLKKKLEATKTENSELQSTIVTLNTELENLEKEQESTEEVFLEYESRIEALEDEKHDIIEKHSKELNTYRKEKDQLNLQVQELMIILENNKQDISDLRTERDELRQALESHEKEKAVLKNSLNDLELKIEEVDNKREEEARERDQEVKSLRSQLDTEIETHNNDTEALESMKKQLEAMKEDASMKEKYEEESKQHILQIGKLRHEAIILNEHLTKALAMLKKSSDSESVDKEAISNLLISFVSIPRADPRKFEVLELLSNFLNWDEDKKQQAGLISNNESKNSSAVSRTESFVSLWTNYLEKESEKD [L410A], the “effect of a mutation on the interaction” value was “decreasing interaction”.
